Assay results from patent US20210371529A1 (Innovent, published 2021).

Tests used:
[1] = molecular target: T1, rhLAG3 protein (huFc) (human, UniProt P18627 23-450, limits assumed); assay: flow cytometry, blocking of rhLAG3 (huFc) 20 nM binding to HLA-DR on CHO-DR cells
T1 construct: Bought Fc fusion; also called antigen rhLAG3 protein (huFc) (Sino Biological); human LAG-3; not shown: human Fc
T1 sequence (looked up): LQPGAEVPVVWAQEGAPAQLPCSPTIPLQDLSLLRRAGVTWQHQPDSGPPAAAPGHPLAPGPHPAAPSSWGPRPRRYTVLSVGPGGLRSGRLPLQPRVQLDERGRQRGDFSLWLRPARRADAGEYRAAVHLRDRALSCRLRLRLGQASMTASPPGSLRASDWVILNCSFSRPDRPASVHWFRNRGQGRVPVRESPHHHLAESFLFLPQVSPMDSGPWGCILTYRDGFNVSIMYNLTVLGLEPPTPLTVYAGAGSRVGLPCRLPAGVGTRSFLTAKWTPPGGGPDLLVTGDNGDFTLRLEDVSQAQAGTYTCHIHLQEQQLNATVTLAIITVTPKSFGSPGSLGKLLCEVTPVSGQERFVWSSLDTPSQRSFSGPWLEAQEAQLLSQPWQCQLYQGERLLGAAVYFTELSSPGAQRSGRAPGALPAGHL
Protocol: Antigen rhLAG3 protein (huFc) (Sino Biological) was diluted to 40 nM, 50 μL/well. […] 50 μL of the diluted antibodies was added to each well, and incubated in PBS on ice for 30 min. The final antigen concentration was 20 nM and the maximum antibody concentration was 40 nM. The CHO-DR cells were adjusted to 3×10⁵ cells/well, 100 μL/well. The cells were centrifuged at 300 g for 5 min. The supernatant was discarded. Then the cells were resuspended in an antigen-antibody mixture. The mixture was incubated on ice for 30 min. PBS was added, 100 μL/well. After centrifugation at 300 g for 5 min, the mixture was washed with PBS once. 100 μL of goat anti-human IgG-PE (Southern Biotech) diluted in 1:100 was added to each well. After a 20-min ice bath, PBS was added, 100 μL/well. The mixture was centrifuged at 300 g for 5 min, prior to one wash with PBS. The cells were resuspended with 100 μL of PBS. The cell fluorescence signal values were measured by flow cytometry (BD Biosciences).

[2] = molecular target: T2, human LAG-3 overexpressed on HEK293 cells (human, UniProt P18627 23-525); assay: flow cytometry on 293-hLAG-3 cells, MFI curve
T2 construct: whole, on cells; also called 293-hLAG-3 cells; hLAG-3 on the cell surface
T2 sequence (looked up): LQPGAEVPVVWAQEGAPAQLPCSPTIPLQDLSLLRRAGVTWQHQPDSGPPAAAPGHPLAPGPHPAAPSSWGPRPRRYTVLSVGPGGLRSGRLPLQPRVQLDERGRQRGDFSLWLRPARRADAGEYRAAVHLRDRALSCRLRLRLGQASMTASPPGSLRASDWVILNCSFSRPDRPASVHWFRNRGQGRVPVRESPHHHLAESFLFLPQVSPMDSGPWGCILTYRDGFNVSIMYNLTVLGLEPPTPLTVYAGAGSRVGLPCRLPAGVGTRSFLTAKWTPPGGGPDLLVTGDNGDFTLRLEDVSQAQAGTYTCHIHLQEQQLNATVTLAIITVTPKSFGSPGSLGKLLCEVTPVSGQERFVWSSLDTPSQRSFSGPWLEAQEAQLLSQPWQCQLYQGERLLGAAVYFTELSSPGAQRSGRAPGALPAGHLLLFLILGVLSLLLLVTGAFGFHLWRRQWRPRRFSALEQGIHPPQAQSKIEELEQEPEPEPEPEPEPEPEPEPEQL
Protocol: The binding of the 4 exemplary antibodies of the invention described above to human LAG-3 was measured in a flow cytometry-based assay. 293 cells (293-hLAG-3 cells) over-expressing human LAG-3 were generated by transfecting human embryonic kidney 293 cells (Invitrogen) with pCHO1.0 vectors (Invitrogen) carrying human LAG-3 cDNA (Sino Biological) cloned into multiple cloning sites (MCSs). 293-hLAG-3 cells (0.2×10⁶ cells) were mixed with different concentrations of antibodies (ADI-26789, ADI-26869 and reference 25F7) prepared as described above (the antibodies were serially three-fold diluted from a maximum concentration of 500 nM in PBS containing 0.1% bovine serum albumin (BSA) until the 8th concentration). The cells were incubated on ice for 30 min. The cells were then washed at least twice prior to addition of a secondary antibody (a PE-labeled goat anti-human IgG antibody, Southern Biotech, final concentration […]) diluted in 1:100, and incubated on ice (protected from light) for 30 minutes. The cells were washed at least twice and analyzed by flow cytometry. The flow cytometry assay was performed on an Accuri C6 system (BD Biosciences), and a concentration-dependent curve was fitted with GraphPad according to the mean fluorescence intensity (MFI).

[3] = molecular target: T3, human LAG-3-His (human, UniProt P18627 23-450); assay: BLI (ForteBio), antibody on AHQ tip, human LAG-3-His 100 nM in solution
T3 construct: Bought antigen (ArcoBiosystems), 100 nM in solution in the ForteBio assay; also called human LAG-3 antigen (ArcoBiosystems); hLAG-3; not shown: His tag
T3 sequence (looked up): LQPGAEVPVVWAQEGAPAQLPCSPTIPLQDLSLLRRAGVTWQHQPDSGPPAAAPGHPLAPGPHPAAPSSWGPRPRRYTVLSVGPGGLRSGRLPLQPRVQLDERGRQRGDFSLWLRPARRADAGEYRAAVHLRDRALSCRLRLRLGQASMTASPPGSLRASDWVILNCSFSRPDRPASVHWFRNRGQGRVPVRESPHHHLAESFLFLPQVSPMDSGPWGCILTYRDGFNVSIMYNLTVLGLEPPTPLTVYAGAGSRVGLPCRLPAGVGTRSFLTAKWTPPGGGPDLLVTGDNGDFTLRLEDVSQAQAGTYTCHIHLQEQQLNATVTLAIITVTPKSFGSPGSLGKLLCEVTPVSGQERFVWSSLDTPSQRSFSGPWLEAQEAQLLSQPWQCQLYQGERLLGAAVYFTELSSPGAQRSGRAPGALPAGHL
Protocol: (§1) The purified antibody obtained as described above was loaded on-line onto an AHQ sensor (ForteBio) for ForteBio affinity assay. The sensor with the loaded antibody was then exposed to 100 nM of a human LAG-3 antigen (ArcoBiosystems) for 5 minutes before transferring the sensor to the assay buffer for dissociation for 5 minutes for dissociation rate measurement. Kinetic analysis was performed using a 1:1 binding model.

[4] = molecular target: T3, human LAG-3-His; assay: BLI (ForteBio), antibody on AHQ tip, human LAG-3-His 100 nM in solution, univalent
Protocol: as §1

Row | Binder | IC50 [1] [pM] | EC50 [2] [pM] | koff [3] [s⁻¹] | kon [3] [M⁻¹ s⁻¹] | Kd [4] [pM]
1 | ADI-31851 (antibody, human IgG4 S228P, kappa, F234A L235A, V domains shown, IgG4 heavy chain constant region with kappa light chain; expressed in HEK293 cells) VH: QLQLQESGPGLVKPSETLSLTCTVSGGSISSPDYYWGWIRQPPGKGLEWIGSIVYSGYTYYNPSLKSRVTISVDTSKNQFSLKLSSVTAADTAVYYCARVRTWDQSFDIWGQGTMVTVSS VL: DIQMTQSPSSLSASVGDRVTITCQAGQDISNYLNWYQQKPGKAPKLLIYDASNLETGVPSRFSGSGSGTDFTFTISSLQPEDIATYYCQQVLELPPWTFGGGTKVEIKR | 5850 | 501 | 0.0002 | 330000 | 606
2 | ADI-31853 (antibody, human IgG4 S228P, kappa, F234A L235A, V domains shown, IgG4 heavy chain constant region with kappa light chain; expressed in HEK293 cells) VH: QLQLQESGPGLVKPSETLSLTCTVSGGSIYSESYYWGWIRQPPGKGLEWIGSIVYSGYTYYNPSLKSRVTISVDTSKNQFSLKLSSVTAADTAVYYCARVRTWDAAFDIWGQGTMVTVSS VL: DIQMTQSPSSLSASVGDRVTITCQASQDISNYLNWYQQKPGKAPKLLIYDASNLETGVPSRFSGSGSGTDFTFTISSLQPEDIATYYCQQVLELPPWTFGGGTKVEIKR | 4530 | 433 | 0.0002 | 322000 | 622
